The results in this text go back to PMC8061694, “Ectopic positioning of the cell division plane is associated with single amino acid substitutions in the FtsZ-recruiting SsgB in Streptomyces” (Open Biology, 2021).

As a reminder, the stoichiometry N is the number of molecules, sites or subunits per partner or assembly.

First the molecules themselves.
B1: Streptomyces coelicolor SsgB, wild type, His6-tagged (natural protein, UniProt Q9L268 1-137, looked up)
chain: MNTTVSCELHLRLVVSSESSLPVPAGLRYDTADPYAVHATFHTGAEETVEWVFARDLLAEGLHRPTGTGDVRVWPSRSHGQGVVCIALSSPEGEALLEAPARALESFLKRTDAAVPPGTEHRHFDLDQELSHILAES
notes: SsgB of Streptomyces coelicolor, entire coding region, 137 aa native polypeptide; expressed from pET28a as a 157 aa fusion protein; Trimer in the crystal, mainly monomer by SEC; The last 13 residues are not modelled in the structure; also called ScSsgB; wild-type SsgB; source: E. coli Rosetta 2 (DE3) pLysS, purified
B2: SsgB-E120G, His6-tagged (natural protein, Streptomyces coelicolor, UniProt Q9L268 1-137, looked up)
chain: B1 chain with E120G
notes: SsgB of Streptomyces coelicolor, entire coding region (137 aa), point mutant E120G, expressed in the same way as wild type; also called SsgB variant E120G; source: E. coli Rosetta 2 (DE3) pLysS, purified
B3: SsgB E120A, His6-tagged (natural protein, Streptomyces coelicolor, UniProt Q9L268 1-137, looked up)
chain: B1 chain with E120A
notes: SsgB of Streptomyces coelicolor, entire coding region (137 aa), point mutant E120A, expressed in the same way as wild type; also called SsgB variant E120A; source: E. coli Rosetta 2 (DE3) pLysS, purified
B4: Streptomyces coelicolor FtsZ, C-terminal His-tag fusion (natural protein, UniProt P45500 1-399, looked up)
chain: MAAPQNYLAVIKVIGVGGGGVNAINRMIEVGLKGVEFIAINTDAQALLMSDADVKLDVGRELTRGLGAGANPAVGRKAAEDHREEIEEVLKGADMVFVTAGEGGGTGTGGAPVVANIARSLGALTIGVVTRPFTFEGRRRANQAEDGIAELREEVDTLIVIPNDRLLSISDRQVSVLDAFKSADQVLLSGVQGITDLITTPGLINLDFADVKSVMSEAGSALMGIGSARGDDRAVAAAEMAISSPLLEASIDGARGVLLSISGGSDLGLFEINEAAQLVSEAAHPEANIIFGAVIDDALGDEVRVTVIAAGFDGGQPPSKRDNVLGSSSAKREEPTPARPSESRPSFGSLGSVKPKEEPEPAPVPEPVADLPVSPPPVPPSRTYSDSAAEELDVPDFLK
notes: FtsZ of Streptomyces coelicolor, codon-optimised ftsZ cloned into pET28a; Forms polymers with GTP; source: E. coli Rosetta 2 (DE3) pLysS, purified

Residue numbers refer to the chain shown, from its start. Names may count otherwise.

For series [1], the target named is Streptomyces coelicolor SsgB, wild type, His6-tagged (Streptomyces coelicolor) (UniProt Q9L268). Briefly: crystal structure; tetragonal crystals, sitting-drop vapour diffusion at 18°C; 0.2 M sodium chloride, 0.1 M sodium/potassium phosphate pH 6.2, 50% PEG200; 2.1 Å; eight molecules per asymmetric unit.
Series [2] addresses B4. Briefly: co-sedimentation; co-pelleting assay: purified FtsZ with or without equimolar SsgB or its mutants, 15 µM final; pre-spun 50 k r.p.m. 30 min; 2 mM MgCl2 and GTP added, 10 min at 30°C; centrifuged 65 k r.p.m. at 20°C for 30 min; supernatants and pellets on SDS-PAGE. Particulars: both partners purified.
Series [3] concerns the molecule itself. The description is as above.

In turn, B1 yielded a stoichiometry N in series [1] of 3. Also, the binding result in series [2] is reported as “binds”.
In the case of B2, the binding result in series [2] was “binds”.
The same measure, in the same setting: then B3, with “binds”.
With B4, the binding result in series [3] is listed as “binds”.
